B1: FOSL2 (protein, UniProt P15408 1-326, looked up)
Fos-related antigen 2: MYQDYPGNFDTSSRGSSGSPAHAESYSSGGGGQQKFRVDMPGSGSAFIPTINAITTSQDLQWMVQPTVITSMSNPYPRSHPYSPLPGLASVPGHMALPRPGVIKTIGTTVGRRRRDEQLSPEEEEKRRIRRERNKLAAAKCRNRRRELTEKLQAETEELEEEKSGLQKEIAELQKEKEKLEFMLVAHGPVCKISPEERRSPPAPGLQPMRSGGGSVGAVVVKQEPLEEDSPSSSSAGLDKAQRSVIKPISIAGGFYGEEPLHTPIVVTSTPAVTPGTSNLVFTYPSVLEQESPASPSESCSKAHRRSSSSGDQSSDSLNSPTLLAL
B2: ETV2 (protein, UniProt P41163 1-335, looked up)
ETS translocation variant 2: MDLWNWDEASLQEVPPGDKLTGLGAEFGFYFPEVALQEDTPITPMNVEGCWKGFPELDWNPALPHEDVPFQAEPVAHPLPWSRDWTDLGCNTSDPWSCASQTPGPAPPGTSPSPFVGFEGATGQNPATSAGGVPSWSHPPAAWSTTSWDCSVGPSGATYWDNGLGGEAHEDYKMSWGGSAGSDYTTTWNTGLQDCSIPFEGHQSPAFTTPSKSNKQSDRATLTRYSKTNHRGPIQLWQFLLELLHDGARSSCIRWTGNSREFQLCDPKEVARLWGERKRKPGMNYEKLSRGLRYYYRRDIVLKSGGRKYTYRFGGRVPVLAYQDDMGHLPGAEGQ
B3: FOSL1 (protein, UniProt P15407 1-271, looked up)
Fos-related antigen 1: MFRDFGEPGPSSGNGGGYGGPAQPPAAAQAAQQKFHLVPSINTMSGSQELQWMVQPHFLGPSSYPRPLTYPQYSPPQPRPGVIRALGPPPGVRRRPCEQISPEEEERRRVRRERNKLAAAKCRNRRKELTDFLQAETDKLEDEKSGLQREIEELQKQKERLELVLEAHRPICKIPEGAKEGDTGSTSGTSSPPAPCRPVPCISLSPGPVLEPEALHTPTLMTTPSLTPFTPSLVFTYPSTPEPCASAHRKSSSSSGDPSSDPLGSPTLLAL
B4: FHL2 (protein, UniProt Q14192 1-279, looked up)
Four and a half LIM domains …: MTERFDCHHCNESLFGKKYILREESPYCVVCFETLFANTCEECGKPIGCDCKDLSYKDRHWHEACFHCSQCRNSLVDKPFAAKEDQLLCTDCYSNEYSSKCQECKKTIMPGTRKMEYKGSSWHETCFICHRCQQPIGTKSFIPKDNQNFCVPCYEKQHAMQCVQCKKPITTGGVTYREQPWHKECFVCTACRKQLSGQRFTARDDFAYCLNCFCDLYAKKCAGCTNPISGLGGTKYISFEERQWHNDCFNCKKCSLSLVGRGFLTERDDILCPDCGKDI
B5: FOXA3 (protein, UniProt P55318 1-350, looked up)
Hepatocyte nuclear factor …: MLGSVKMEAHDLAEWSYYPEAGEVYSPVTPVPTMAPLNSYMTLNPLSSPYPPGGLPASPLPSGPLAPPAPAAPLGPTFPGLGVSGGSSSSGYGAPGPGLVHGKEMPKGYRRPLAHAKPPYSYISLITMAIQQAPGKMLTLSEIYQWIMDLFPYYRENQQRWQNSIRHSLSFNDCFVKVARSPDKPGKGSYWALHPSSGNMFENGCYLRRQKRFKLEEKVKKGGSGAATTTRNGTGSAASTTTPAATVTSPPQPPPPAPEPEAQGGEDVGALDCGSPASSTPYFTGLELPGELKLDAPYNFNHPFSINNLMSEQTPAPPKLDVGFGGYGAEGGEPGVYYQGLYSRSLLNAS
B6: FOSB (protein, UniProt P53539 1-338, looked up)
Protein FosB: MFQAFPGDYDSGSRCSSSPSAESQYLSSVDSFGSPPTAAASQECAGLGEMPGSFVPTVTAITTSQDLQWLVQPTLISSMAQSQGQPLASQPPVVDPYDMPGTSYSTPGMSGYSSGGASGSGGPSTSGTTSGPGPARPARARPRRPREETLTPEEEEKRRVRRERNKLAAAKCRNRRRELTDRLQAETDQLEEEKAELESEIAELQKEKERLEFVLVAHKPGCKIPYEEGPGPGPLAEVRDLPGSAPAKEDGFSWLLPPPPPPPLPFQTSQDAPPNLTASLFTHSEVQVLGDPFPVVNPSYTSSFVLTCPEVSAFAGAQRTSGSDQPSDPLNSPSLLAL
B7: EZH1 (protein, UniProt Q92800 1-747, looked up)
Histone-lysine …: MEIPNPPTSKCITYWKRKVKSEYMRLRQLKRLQANMGAKALYVANFAKVQEKTQILNEEWKKLRVQPVQSMKPVSGHPFLKKCTIESIFPGFASQHMLMRSLNTVALVPIMYSWSPLQQNFMVEDETVLCNIPYMGDEVKEEDETFIEELINNYDGKVHGEEEMIPGSVLISDAVFLELVDALNQYSDEEEEGHNDTSDGKQDDSKEDLPVTRKRKRHAIEGNKKSSKKQFPNDMIFSAIASMFPENGVPDDMKERYRELTEMSDPNALPPQCTPNIDGPNAKSVQREQSLHSFHTLFCRRCFKYDCFLHPFHATPNVYKRKNKEIKIEPEPCGTDCFLLLEGAKEYAMLHNPRSKCSGRRRRRHHIVSASCSNASASAVAETKEGDSDRDTGNDWASSSSEANSRCQTPTKQKASPAPPQLCVVEAPSEPVEWTGAEESLFRVFHGTYFNNFCSIARLLGTKTCKQVFQFAVKESLILKLPTDELMNPSQKKKRKHRLWAAHCRKIQLKKDNSSTQVYNYQPCDHPDRPCDSTCPCIMTQNFCEKFCQCNPDCQNRFPGCRCKTQCNTKQCPCYLAVRECDPDLCLTCGASEHWDCKVVSCKNCSIQRGLKKHLLLAPSDVAGWGTFIKESVQKNEFISEYCGELISQDEADRRGKVYDKYMSSFLFNLNNDFVVDATRKGNKIRFANHSVNPNCYAKVVMVNGDHRIGIFAKRAIQAGEELFFDYRYSQADALKYVGIERETDVL
B8: ETV7 (protein, UniProt Q9Y603 1-341, looked up)
Transcription factor ETV7: MQEGELAISPISPVAAMPPLGTHVQARCEAQINLLGEGGICKLPGRLRIQPALWSREDVLHWLRWAEQEYSLPCTAEHGFEMNGRALCILTKDDFRHRAPSSGDVLYELLQYIKTQRRALVCGPFFGGIFRLKTPTQHSPVPPEEVTGPSQMDTRRGHLLQPPDPGLTSNFGHLDDPGLARWTPGKEESLNLCHCAELGCRTQGVCSFPAMPQAPIDGRIADCRLLWDYVYQLLLDTRYEPYIKWEDKDAKIFRVVDPNGLARLWGNHKNRVNMTYEKMSRALRHYYKLNIIKKEPGQKLLFRFLKTPGKMVQDKHSHLEPLESQEQDRIEFKDKRPEISP
B9: FERD3L (protein, UniProt Q96RJ6 1-166, looked up)
Fer3-like protein: MAAYPESCVDTTVLDFVADLSLASPRRPLLCDFAPGVSLGDPALALREGRPRRMARFEEGDPEEEECEVDQGDGEEEEEEERGRGVSLLGRPKRKRVITYAQRQAANIRERKRMFNLNEAFDQLRRKVPTFAYEKRLSRIETLRLAIVYISFMTELLESCEKKESG
B10: FLI1 (protein, UniProt Q01543 1-452, looked up)
Friend leukemia integration 1 …: MDGTIKEALSVVSDDQSLFDSAYGAAAHLPKADMTASGSPDYGQPHKINPLPPQQEWINQPVRVNVKREYDHMNGSRESPVDCSVSKCSKLVGGGESNPMNYNSYMDEKNGPPPPNMTTNERRVIVPADPTLWTQEHVRQWLEWAIKEYSLMEIDTSFFQNMDGKELCKMNKEDFLRATTLYNTEVLLSHLSYLRESSLLAYNTTSHTDQSSRLSVKEDPSYDSVRRGAWGNNMNSGLNKSPPLGGAQTISKNTEQRPQPDPYQILGPTSSRLANPGSGQIQLWQFLLELLSDSANASCITWEGTNGEFKMTDPDEVARRWGERKSKPNMNYDKLSRALRYYYDKNIMTKVHGKRYAYKFDFHGIAQALQPHPTESSMYKYPSDISYMPSYHAHQQKVNFVPPHPSSMPVTSSSFFGAASQYWTSPTGGIYPNPNVPRHPNTHVPSHLGSYY
B11: FOXA1 (protein, UniProt P55317 1-472, looked up)
Hepatocyte nuclear factor …: MLGTVKMEGHETSDWNSYYADTQEAYSSVPVSNMNSGLGSMNSMNTYMTMNTMTTSGNMTPASFNMSYANPGLGAGLSPGAVAGMPGGSAGAMNSMTAAGVTAMGTALSPSGMGAMGAQQAASMNGLGPYAAAMNPCMSPMAYAPSNLGRSRAGGGGDAKTFKRSYPHAKPPYSYISLITMAIQQAPSKMLTLSEIYQWIMDLFPYYRQNQQRWQNSIRHSLSFNDCFVKVARSPDKPGKGSYWTLHPDSGNMFENGCYLRRQKRFKCEKQPGAGGGGGSGSGGSGAKGGPESRKDPSGASNPSADSPLHRGVHGKTGQLEGAPAPGPAASPQTLDHSGATATGGASELKTPASSTAPPISSGPGALASVPASHPAHGLAPHESQLHLKGDPHYSFNHPFSINNLMSSSEQQHKLDFKAYEQALQYSPYGSTLPASLPLGSASVTTRSPIEPSALEPAYYQGVYSRPVLNTS
B12: AFF3 (protein, UniProt P51826 1-1226, looked up)
AF4/FMR2 family member 3: MDSFDLALLQEWDLESLCVYEPDRNALRRKERERRNQETQQDDGTFNSSYSLFSEPYKTNKGDELSNRIQNTLGNYDEMKDFLTDRSNQSHLVGVPKPGVPQTPVNKIDEHFVADSRAQNQPSSICSTTTSTPAAVPVQQSKRGTMGWQKAGHPPSDGQQRATQQGSLRTLLGDGVGRQQPRAKQVCNVEVGLQTQERPPAMAAKHSSSGHCVQNFPPSLASKPSLVQQKPTAYVRPMDGQDQAPDESPKLKSSSETSVHCTSYRGVPASKPEPARAKAKLSKFSIPKQGEESRSGETNSCVEEIIREMTWLPPLSAIQAPGKVEPTKFPFPNKDSQLVSSGHNNPKKGDAEPESPDNGTSNTSMLEDDLKLSSDEEENEQQAAQRTALRALSDSAVVQQPNCRTSVPSSKGSSSSSSSGSSSSSSDSESSSGSDSETESSSSESEGSKPPHFSSPEAEPASSNKWQLDKWLNKVNPHKPPILIQNESHGSESNQYYNPVKEDVQDCGKVPDVCQPSLREKEIKSTCKEEQRPRTANKAPGSKGVKQKSPPAAVAVAVSAAAPPPAVPCAPAENAPAPARRSAGKKPTRRTERTSAGDGANCHRPEEPAAADALGTSVVVPPEPTKTRPCGNNRASHRKELRSSVTCEKRRTRGLSRIVPKSKEFIETESSSSSSSSDSDLESEQEEYPLSKAQTVAASASSGNDQRLKEAAANGGSGPRAPVGSINARTTSDIAKELEEQFYTLVPFGRNELLSPLKDSDEIRSLWVKIDLTLLSRIPEHLPQEPGVLSAPATKDSESAPPSHTSDTPAEKALPKSKRKRKCDNEDDYREIKKSQGEKDSSSRLATSTSNTLSANHCNMNINSVAIPINKNEKMLRSPISPLSDASKHKYTSEDLTSSSRPNGNSLFTSASSSKKPKADSQLQPHGGDLTKAAHNNSENIPLHKSRPQTKPWSPGSNGHRDCKRQKLVFDDMPRSADYFMQEAKRMKHKADAMVEKFGKALNYAEAALSFIECGNAMEQGPMESKSPYTMYSETVELIRYAMRLKTHSGPNATPEDKQLAALCYRCLALLYWRMFRLKRDHAVKYSKALIDYFKNSSKAAQAPSPWGASGKSTGTPSPMSPNPSPASSVGSQGSLSNASALSPSTIVSIPQRIHQMAANHVSITNSILHSYDYWEMADNLAKENREFFNDLDLLMGPVTLHSSMEHLVQYSQQGLHWLRNSAHLS

system: HEK293FT cells transfected with TF library; experiment: Screening of TF condensates based on fluorescent puncta; assay type: cell-based; details: Figure 1B numerical data; TF library screen, one value per transcriptional factor
Procedure, shortened: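 Each TF construct was introduced into HEK293FT cells using PEI at 4.8 μg/ml; glucose deprivation versus normal medium lasted 12 h. Automated confocal-style imaging of tagged TF staining, 50 fields per well, gave the puncta data.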

Row | Molecule | Z score of condensed fraction
1 | B1 | -0.8108
2 | B2 | 0.6041
3 | B3 | -0.3444
4 | B4 | 0.8678
5 | B5 | 0.4813
6 | B6 | 1.202
7 | B7 | -2.133
8 | B8 | -0.026
9 | B9 | 0.6489
10 | B10 | 0.3939
11 | B11 | -0.3489
12 | B12 | -0.8104

— paper PMC11574045, “A cofactor-induced repressive type of transcription factor condensation can be induced by synthetic peptides to suppress tumorigenesis” (The EMBO Journal, 2024)
